Our source for the apoptosis-inducing activity relative to IleZip-shFasL (WST-1 assay, Jurkat cells) and apoptosis-inducing activity relative to shFasL (WST-1 assay, Jurkat cells) values is patent US20040053249A1.

For this experiment, the target named is Fas on Jurkat cells (cell line from human T cell) (human) (UniProt P25445). Nature of the experiment: cell-based or functional assay.
Chain of UniProt P25445 (P25445 26-335): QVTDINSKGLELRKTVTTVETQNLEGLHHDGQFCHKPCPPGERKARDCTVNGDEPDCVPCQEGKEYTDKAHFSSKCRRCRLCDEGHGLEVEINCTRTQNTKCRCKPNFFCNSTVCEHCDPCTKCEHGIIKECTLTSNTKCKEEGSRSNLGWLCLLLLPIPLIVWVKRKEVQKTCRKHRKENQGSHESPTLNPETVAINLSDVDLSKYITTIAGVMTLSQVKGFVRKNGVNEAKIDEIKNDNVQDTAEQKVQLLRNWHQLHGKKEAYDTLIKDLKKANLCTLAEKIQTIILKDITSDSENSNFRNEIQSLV

Substance “FLAG-IleZip-shFasL (pM1815), fusion protein of FLAG peptide, leucine zipper and the extracellular domain of human Fas ligand” came in with an apoptosis-inducing activity relative to IleZip-shFasL (WST-1 assay, Jurkat cells) of 10 times and an apoptosis-inducing activity relative to shFasL (WST-1 assay, Jurkat cells) of 100 times.
